From paper PMC8585765, “An OsKala3, R2R3 MYB TF, Is a Common Key Player for Black Rice Pericarp as Main Partner of an OsKala4, bHLH TF” (Frontiers in Plant Science, 2021)

Molecular target: T1, OsKala4 (rice (Oryza sativa), UniProt Q948Y2 1-451)
T1 sequence (looked up): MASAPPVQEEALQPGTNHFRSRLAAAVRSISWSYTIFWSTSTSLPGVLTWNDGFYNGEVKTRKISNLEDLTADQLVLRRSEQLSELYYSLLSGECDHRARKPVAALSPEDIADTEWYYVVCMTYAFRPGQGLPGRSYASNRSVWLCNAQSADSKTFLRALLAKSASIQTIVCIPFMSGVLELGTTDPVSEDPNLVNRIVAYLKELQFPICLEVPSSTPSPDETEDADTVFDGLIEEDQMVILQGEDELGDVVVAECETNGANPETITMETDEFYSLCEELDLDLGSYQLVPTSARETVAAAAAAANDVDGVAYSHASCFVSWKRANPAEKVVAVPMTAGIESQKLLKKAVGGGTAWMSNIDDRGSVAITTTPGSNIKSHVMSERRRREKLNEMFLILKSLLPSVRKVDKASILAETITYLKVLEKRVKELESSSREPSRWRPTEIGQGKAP
Experiment: cell-based or functional assay

B1: OsKala3 (natural protein, rice (Oryza sativa), UniProt O23891 1-321, looked up)
chain: MGRKPCCSKEGLNRGAWTAMEDDILVSYIAKHGEGKWGALPKRAGLKRCGKSCRLRWLNYLRPGIKRGNISGDEEELILRLHTLLGNRWSLIAGRLPGRTDNEIKNYWNSTLSKRVAMQRTAAATSMPAAATTSSNADAAGAAARRRRSPEPRTVVVSPIRTKALRCNNNSSSGIVVVQQAGACSHGGRPPESGAPGDAAADKVATPQAVQQQQQQELAGAEDDDDLPVPAVCIDLDLDDIELGGLDGFLISPWRGGGHDDGNAAAGAVPNLPMPIGYKLGGAGGGGEAGAVDLEALLGQLEAEEDDDGDHHHHHHHHHHQ
- dual-luciferase reporter assay in transiently transfected rice protoplasts; proOsCHI:LUC reporter; co-transfection of OsKala3 and OsKala4 compared to OsKala3 alone: 4 fold
